# Laboratory results taken from paper PMC9816786.
# pKd: −log10 of the molar value.
# Molecular target: Human PCSK9 (full length), 6xHis-tagged, purified (human) (UniProt Q8NBP7)
# Test: BLI; biotinylated PCSK9 or biotinylated CHRD immobilised (0.2 μg/ml), CAP1 in solution, pH 7.5, association and dissociation 600 s
# Human CAP1 (cyclase associated protein 1), 6xHis-tagged, purified, sequence (Q01518 whole entry): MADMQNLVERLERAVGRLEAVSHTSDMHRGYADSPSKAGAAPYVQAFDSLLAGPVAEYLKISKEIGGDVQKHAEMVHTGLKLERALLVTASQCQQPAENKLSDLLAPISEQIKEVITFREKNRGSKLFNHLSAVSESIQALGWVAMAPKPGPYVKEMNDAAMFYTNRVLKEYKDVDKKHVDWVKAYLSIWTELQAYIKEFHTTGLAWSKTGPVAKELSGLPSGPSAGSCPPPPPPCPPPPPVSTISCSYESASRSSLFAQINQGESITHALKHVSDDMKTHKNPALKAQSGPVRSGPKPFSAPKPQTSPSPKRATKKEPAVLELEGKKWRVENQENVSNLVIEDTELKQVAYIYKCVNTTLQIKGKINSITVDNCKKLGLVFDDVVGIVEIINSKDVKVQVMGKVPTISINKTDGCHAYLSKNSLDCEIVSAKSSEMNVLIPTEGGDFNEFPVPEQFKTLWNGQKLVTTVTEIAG
substance,measurement,value
"Human CAP1 (cyclase associated protein 1), 6xHis-tagged, purified (from UniProt Q01518 1-475) (natural protein)",pKd,5.87
same,koff,0.00094 s⁻¹
same,kon,690 M⁻¹ s⁻¹
